In PMC3088709, “Phosphorylation of the Yeast γ-Tubulin Tub4 Regulates Microtubule Function” (PLoS ONE, 2011):

Biological target: T1, Spc97-3HA (S. cerevisiae, UniProt P38863 1-823)
T1 construct: Spc97, budding yeast; tagged with 3HA in the TUB4-AID strain; source: S. cerevisiae (TUB4-AID SPC97-3HA strain), in lysate
T1 sequence (looked up): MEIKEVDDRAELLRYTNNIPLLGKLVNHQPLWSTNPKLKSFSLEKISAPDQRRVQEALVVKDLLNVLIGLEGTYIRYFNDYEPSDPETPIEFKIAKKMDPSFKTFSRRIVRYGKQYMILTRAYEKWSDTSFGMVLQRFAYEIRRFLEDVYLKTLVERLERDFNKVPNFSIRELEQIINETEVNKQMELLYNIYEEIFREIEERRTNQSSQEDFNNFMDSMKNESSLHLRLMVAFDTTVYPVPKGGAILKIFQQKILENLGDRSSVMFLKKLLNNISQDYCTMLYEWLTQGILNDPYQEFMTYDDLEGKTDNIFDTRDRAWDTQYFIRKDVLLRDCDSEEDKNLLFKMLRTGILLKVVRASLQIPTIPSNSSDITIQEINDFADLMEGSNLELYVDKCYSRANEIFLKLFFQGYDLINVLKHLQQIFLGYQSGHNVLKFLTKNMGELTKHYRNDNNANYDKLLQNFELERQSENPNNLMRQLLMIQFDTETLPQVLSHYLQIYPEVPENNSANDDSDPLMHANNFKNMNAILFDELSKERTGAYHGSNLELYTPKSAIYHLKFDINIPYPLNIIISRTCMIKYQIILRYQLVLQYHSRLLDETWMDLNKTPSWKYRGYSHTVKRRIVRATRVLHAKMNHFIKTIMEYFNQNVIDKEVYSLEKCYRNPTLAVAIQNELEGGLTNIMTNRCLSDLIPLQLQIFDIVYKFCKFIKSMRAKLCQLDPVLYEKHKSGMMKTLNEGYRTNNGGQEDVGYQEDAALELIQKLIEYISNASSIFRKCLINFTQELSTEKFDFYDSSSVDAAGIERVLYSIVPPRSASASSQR
Experiment: co-IP; anti-HA immunoprecipitation of Spc97-3HA from lysates of TUB4-AID SPC97-3HA cells carrying pRS305 with TUB4, tub4-S74E, tub4-S100E or tub4-S360D, after 2 h of 0.5 mM IAA at 30°C to deplete Tub4-AID; blots with anti-Tub4, anti-Spc98, anti-Spc110 and anti-HA, normalised to precipitated Spc97-3HA
Settings: partners not purified

B1: Tub4-S74E (natural protein, S. cerevisiae, UniProt P53378 1-473, looked up)
chain: MGGEIITLQAGQCGNHVGKFLWSQLAKEHAIGTDGLSQLPDSSTERDDDTKPFFRENSRNKFTPRAIMMDSEPEVIADVENTFRGFFDPRNTWVASDGASAGNSWANGYDIGTRNQDDILNKIDKEIDSTDNFEGFQLLHSVAGGTGSGLGSNLLEALCDRYPKKILTTYSVFPARSSEVVVQSYNTILALRRLIEDSDATVVFDNASLLNISGKVFRNPNIDLQHTNQLISTIISSVTNSIRFPSYMYSSMSSIYSTLIPSPELHFLSPSFTPFTSDYIHDDIAHKGHSSYDVMLDLLDPSNSLVSTAMNNPTYFNVYNTIIGNVEPRQISRAMTKLQQRIKFPSWSSSAMHVNIGRRSPYLPLQPNENEVSGMMLSNMSTVVNVFENACNTFDKVFAKGAFLNNYNVGDLFQSMQNVQDEFAESREVVQSLMEDYVAAEQDSYLDDVLVDDENMVGELEEDLDADGDHKLV
notes: Tub4, gamma-tubulin of budding yeast, phospho-mimicking mutant; source: S. cerevisiae, from integrated pRS305-tub4-S74E, in lysate
B1 was tested, and the “amount in complexes with Spc97-3HA relative to WT Tub4” value was ~75 % of WT Tub4.
